Reference: the supplement of paper PMC7125110
± gives the standard error. For some assays here: This sample holds only a part of the variants without activity.

B1: glmS ribozyme (parent)
chain: AUAAAAGCGCCAGAACUACAGAAAUGUAGUUGACGAGGAGGAGGUUUAUCGAAUUUUCGGCGGAUGCCUCCAAA

Assays:
Conditions in all cases: with glucosamine-6-phosphate
glucosamine-6-phosphate [1] = variants of: B1; assay: kcat; higher = faster cleavage; RNA array
Procedure, shortened: (§1)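 Weighted Michaelis–Menten fits across concentrations supplied kcat and KM, based on kobs from one- or two-exponential decay fits to normalised per-tile medians. The data came from barcoded ribozyme variants transcribed in situ by E. coli RNA polymerase on sequenced MiSeq chips and tracked at 37 °C by a hybridised Cy3 probe. Glucosamine-6-phosphate (40 μM to 10 mM) in HEPES/KCl/Mg(OAc)2 buffer was flowed in.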

glucosamine-6-phosphate [2] = variants of: B1; assay: KM; higher = weaker cofactor use; RNA array
Procedure, shortened: as §1

glucosamine-6-phosphate [3] = variants of: B1; assay: self-cleavage kobs at 160 uM GlcN6P; higher = faster cleavage; RNA array
Procedure, shortened: as §1

glucosamine-6-phosphate [4] = variants of: B1; assay: self-cleavage kobs at 640 uM GlcN6P; higher = faster cleavage; RNA array
Procedure, shortened: as §1

glucosamine-6-phosphate [5] = variants of: B1; assay: self-cleavage kobs at 2500 uM GlcN6P; higher = faster cleavage; RNA array
Procedure, shortened: as §1

glucosamine-6-phosphate [6] = variants of: B1; assay: self-cleavage kobs at 10000 uM GlcN6P; higher = faster cleavage; RNA array
Procedure, shortened: as §1

glucosamine-6-phosphate [7] = variants of: B1; assay: self-cleavage kobs at 40 uM GlcN6P; higher = faster cleavage; RNA array
Procedure, shortened: as §1

Row | Variant | kcat (glucosamine-6-phosphate [1]) | KM (glucosamine-6-phosphate [2]) | self-cleavage kobs at 160 uM GlcN6P (glucosamine-6-phosphate [3]) | self-cleavage kobs at 640 uM GlcN6P (glucosamine-6-phosphate [4]) | self-cleavage kobs at 2500 uM GlcN6P (glucosamine-6-phosphate [5]) | self-cleavage kobs at 10000 uM GlcN6P (glucosamine-6-phosphate [6]) | self-cleavage kobs at 40 uM GlcN6P (glucosamine-6-phosphate [7])
1 | G43C C67A | 0.000634 ± 8.3e-05 s⁻¹ | 1520 ± 410 µM | 4.22e-05 ± 1.1e-05 s⁻¹ | 0.000205 ± 2e-05 s⁻¹ | 0.000479 ± 5.7e-05 s⁻¹ | 0.00052 ± 4.3e-05 s⁻¹ | –
2 | U31G A36C C70G | 7.04e-05 ± 3.2e-05 s⁻¹ | – | – | 0.000105 ± 4.3e-05 s⁻¹ | – | – | –
3 | U57A C70A | 1.98e-05 ± 3.5e-06 s⁻¹ | – | – | – | – | – | –
4 | G32A U46A | 0.000607 ± 2.1e-05 s⁻¹ | – | – | 2.22e-05 ± 1.1e-05 s⁻¹ | 7.83e-05 ± 2.1e-05 s⁻¹ | 0.000226 ± 2.7e-05 s⁻¹ | –
5 | G40A | 0.0122 ± 0.00085 s⁻¹ | 1310 ± 110 µM | 0.0012 ± 0.00012 s⁻¹ | 0.00372 ± 0.0003 s⁻¹ | 0.00876 ± 0.0005 s⁻¹ | 0.0103 ± 0.00063 s⁻¹ | 0.000363 ± 7.8e-06 s⁻¹
6 | G13U U57A | 2.08e-05 ± 4.9e-06 s⁻¹ | – | – | – | – | – | < 1e-05 s⁻¹
7 | C50G U55G C67G | 2.81e-05 ± 6.9e-06 s⁻¹ | – | – | – | – | – | –
8 | G60A G66C | < 1e-05 s⁻¹ | – | – | < 1e-05 s⁻¹ | < 1e-05 s⁻¹ | < 1e-05 s⁻¹ | –
9 | C11A C67A | 6.14e-05 ± 1e-05 s⁻¹ | – | – | 7.25e-05 ± 1.2e-05 s⁻¹ | 6.18e-05 ± 1.1e-05 s⁻¹ | 5.12e-05 ± 9.8e-06 s⁻¹ | –
10 | C34G C61G | < 1e-05 s⁻¹ | – | – | < 1e-05 s⁻¹ | – | – | < 1e-05 s⁻¹
11 | G13C G32U | 0.000576 ± 4.2e-05 s⁻¹ | 3170 ± 470 µM | – | 8.34e-05 ± 4.1e-05 s⁻¹ | 0.000258 ± 5.7e-05 s⁻¹ | 0.000436 ± 7.7e-05 s⁻¹ | –
12 | A14C G29U G37U G38A C70A | 5.57e-05 ± 2e-05 s⁻¹ | – | – | – | 6.04e-05 ± 2.4e-05 s⁻¹ | – | –
13 | C8U C10A A15U G38A C50U | < 1e-05 s⁻¹ | – | – | – | – | – | –
14 | A6G C10U U56A | < 1e-05 s⁻¹ | – | – | < 1e-05 s⁻¹ | – | – | < 1e-05 s⁻¹
15 | U30C U31G | 0.00836 ± 0.0018 s⁻¹ | 2370 ± 690 µM | 0.000404 ± 0.0001 s⁻¹ | 0.00249 ± 0.00044 s⁻¹ | 0.00353 ± 0.0008 s⁻¹ | 0.00701 ± 0.00093 s⁻¹ | 0.000147 ± 1.9e-05 s⁻¹
16 | A15U G29U | 0.00358 ± 0.0016 s⁻¹ | – | 0.000217 ± 7.1e-05 s⁻¹ | – | 0.0014 ± 0.00028 s⁻¹ | 0.00431 ± 0.00044 s⁻¹ | 0.000116 ± 1.1e-05 s⁻¹
17 | C11U A39G | 0.00395 ± 0.00067 s⁻¹ | 1780 ± 480 µM | 0.00047 ± 9.6e-05 s⁻¹ | 0.00116 ± 0.00026 s⁻¹ | 0.00192 ± 0.00036 s⁻¹ | 0.00358 ± 0.00044 s⁻¹ | 7.9e-05 ± 1.3e-05 s⁻¹
18 | G29U U65G | 0.00182 ± 0.0005 s⁻¹ | 4450 ± 1800 µM | 8.11e-05 ± 1.6e-05 s⁻¹ | 0.000188 ± 3e-05 s⁻¹ | 0.000739 ± 0.0001 s⁻¹ | 0.00124 ± 0.00017 s⁻¹ | 3.41e-05 ± 1.4e-05 s⁻¹
